Reference: the DeepSol protein solubility set

Assay: soluble on expression in E. coli; label from the status in PepcDB or PDB records

Sequence | soluble on expression in E. coli
MGSDKIHHHHHHVSDLEWVLAIPHEQAFKRMEEPWGGAKTSYLTGIKETLEANYGPIHFTRLYFGEEFCERALSTGKALEEAVAAAEERGWGFTYVTPYLTETGLTKVRLLLDILAQTKPEAEVVINDWGVLDWVTEHHPTFTPVLGRLMNKIIRDPRMPDSLRNSPDQTVMHKFRTCNLAGGEMKDLLDQYQVKRIELDYPPQGLDPNLPAWGYDISLSIPYGVIMTGRICLMQSWGLAAGEKFRTTGPCPRRCRLGWLELSDPSGRVKKDQDWQIMQKGNTVFYRQSKEFLAEILTEAEKTGVSRMIFQPEPI | not soluble
MATVSRLRPYATTVFAEMSALATRIGAVNLGQGFPDEDGPPKMLQAAQDAIAGGVNQYPPGPGSAPLRRAIAAQRRRHFGVDYDPETEVLVTVGATEAIAAAVLGLVEPGSEVLLIEPFYDSYSPVVAMAGAHRVTVPLVPDGRGFALDADALRRAVTPRTRALIINSPHNPTGAVLSATELAAIAEIAVAANLVVITDEVYEHLVFDHARHLPLAGFDGMAERTITISSAAKMFNCTGWKIGWACGPAELIAGVRAAKQYLSYVGGAPFQPAVALALDTEDAWVAALRNSLRARRDRLAAGLTEIGFAVHDSYGTYFLCADPRPLGYDDSTEFCAALPEKVGVAAIPMSAFCDPAAGQASQQADVWNHLVRFTFCKRDDTLDEAIRRLSVLAERPATGVPRGLEHHHHHH | soluble
MKLLLLAVCVIGFVACYEVVPRASALRPRGDVRRSPLPSLSAYAPFAKSLRPASTGIRRAPAVVTLPAQKANRSVKRAPAKPLPMTLPLLPPLLPLPQFIPVPVPVLSAEGLPTLPTLAPHTFPTFTPIPGMPTMPALTMPPSFQRLLGITTTTMKPAEKAMETVQTEESDNDTTSEARAHSAPTYSKDLNTIRSRLSKFVRGSEKKVTKAEDNADWIVPFH | not soluble
MINIIGLGPGNLDYITKKGENLISTSDVLIGGKRNLESIKNFEGEKIVLDSNLREIIEYINNNKEKQISIIASGDPLIYGIGRYLSKNIDNKMLNMVSGISSLQYIFSKIYVDMNDVYITSSHGKVPDFDYILSHKKVCMVTDSKIGPKQISREIIDRNLNKIIVVGENLSYDNEKITIAKPEEIIRIDNFDMNVVVILDEE | not soluble
MGSDKIHHHHHHMRIAIVHYWLVGMRGGEKVIEALCRMYPQADIFTHVVAPERLSSMLAARHIRTSFIQRLPGSVRHYQKYLPLMPLALEQFDLRDYDLVISSESGPAKGVLTRADTAHVCYCHSPMRYLWDFQQDYLDNASPLMRPFMRIFFHYLRQWDVASSQRVDRFVANSRNVARRITKHWRREATVVHPPVECDLFTQAPDVADLPDDEVADIVRQGGYYLCLGQLVGYKRVDIAIEACRKAGRRLVVVGDGEQRAMLERNAPEGVTFLGWRTQDEIRALYAGCRALLFPGEEDFGIVPVECMASGRPVIAYGKGGALETVLDGETGVLFHEQTATACHDAIMRHERMERDFVPDSLRRHARTFDTSVFERKFRREVEAALHAVRG | not soluble
RDLKSEVKKRNIQLQFDYPEILSKILLYSNAGLSIKSSIERIVRQYEDEKKKNPKEYHYAYEELKMATVKMKSGVSEINAINQYGERCGLHNYIKLANIIEQNIRRGTGELSFALENELNRALVERKNTALKRGSEISTK | not soluble
MRLVDLRSDTLTRPTPAMRKAMAEAEVGDDAYGEDPTVNRLEALAAERLGFERALFLPSGTMANQVALLLHLPKELEAEARRYRKLLGGGWRQAGVLAAAGILALEEGPKHLRRDHEMARALAEGLFRLGLAVDLGAVETNMVYLEVEDPEGFLQGLRARGVLAGRVGGRVRFVTHRDLMDEDIPLALERVQDLLHSRPR | soluble
MGKEYPYGLLRCFVRRIGKPTDSPRMTSAPTSNQSNPAWSRDELVLALNLYLLHRNGLPGVNHPDVLALSQALNLIGNATGVSKNQSFRNANGVCMKLNNFRRWDPSYTNNGRTGLAKGNKDEQLVWLEFANDPERLAEVVAAINANVQMIPASPIDLSAADDPGFFEAEEGKVLTRVHRVRERDKKIVKRKKEEALTQHGALQCEACGFNFSQTYGADVEGVIDVHHTKPLHTLQPGDKTKLADLALLCANCHRVLHSQRKWLSVAEVKERYQANLKQIQMLEHHHHHH | soluble
GAKESEQKVTIDSAKHEKHTKDKEENNSANTVFFDKINDLLVASVKEFEGTVGISYLDLETGEQRSVNGQHEFYTASTIKVPLTMLVADTVASGQKKWTDLIPYNAEEDYEEGTGIIAYNIQPEYPLKTLQEYAITYSDNIAKNMLYDTLGGDAKAKREMYQRYLHKTPSIEEPQFSSEDALVILQKLYTEKATKPDYQAIYDSMKQSVFHERMETPTTQGKVAHKIGSYDEFIHDMGILETPHPFALAIFTKGPDNAKSAAFIASVTDKLWQLQVSEYPNQ | soluble
